From paper doi:10.1101/2022.05.10.491349

Assays:
Assay in all cases: SEC
[1] = molecular target: SARS-CoV-2 Nsp15 A93S (SARS-CoV-2)
[2] = molecular target: SARS-CoV-2 Nsp15 D133Y (SARS-CoV-2)
[3] = molecular target: SARS-CoV-2 Nsp15 D220Y (SARS-CoV-2)
[4] = molecular target: SARS-CoV-2 Nsp15 G18E (SARS-CoV-2)
[5] = molecular target: SARS-CoV-2 Nsp15 G18R (SARS-CoV-2)
[6] = molecular target: SARS-CoV-2 Nsp15 H235Y (SARS-CoV-2)
[7] = molecular target: SARS-CoV-2 Nsp15 K13N (SARS-CoV-2)
[8] = molecular target: SARS-CoV-2 Nsp15 K13R (SARS-CoV-2)
[9] = molecular target: SARS-CoV-2 Nsp15 K260R (SARS-CoV-2)
[10] = molecular target: SARS-CoV-2 Nsp15 K290N (SARS-CoV-2)
[11] = molecular target: SARS-CoV-2 Nsp15 L163F (SARS-CoV-2)
[12] = molecular target: SARS-CoV-2 Nsp15 P206S (SARS-CoV-2)
[13] = molecular target: SARS-CoV-2 Nsp15 R207S (SARS-CoV-2)
[14] = molecular target: SARS-CoV-2 Nsp15 T34I (SARS-CoV-2)
[15] = molecular target: SARS-CoV-2 Nsp15 T115A (SARS-CoV-2)
[16] = molecular target: SARS-CoV-2 Nsp15 V128F (SARS-CoV-2)
[17] = molecular target: SARS-CoV-2 Nsp15 W333C (SARS-CoV-2)

## SARS-CoV-2 Nsp15 A93S (enzyme)
[1]
  Hex/Mono Ratio: 0.49

## SARS-CoV-2 Nsp15 D133Y (enzyme)
[2]
  Hex/Mono Ratio: 0.48

## SARS-CoV-2 Nsp15 D220Y (enzyme)
[3]
  Hex/Mono Ratio: 0.63

## SARS-CoV-2 Nsp15 G18E (enzyme)
[4]
  Hex/Mono Ratio: 0.56

## SARS-CoV-2 Nsp15 G18R (enzyme)
[5]
  Hex/Mono Ratio: 0.88

## SARS-CoV-2 Nsp15 H235Y (enzyme)
[6]
  Hex/Mono Ratio: 1.61

## SARS-CoV-2 Nsp15 K13N (enzyme)
[7]
  Hex/Mono Ratio: 0.63

## SARS-CoV-2 Nsp15 K13R (enzyme)
[8]
  Hex/Mono Ratio: 1.18

## SARS-CoV-2 Nsp15 K260R (enzyme)
[9]
  Hex/Mono Ratio: 1.8

## SARS-CoV-2 Nsp15 K290N (enzyme)
[10]
  Hex/Mono Ratio: 2.12

## SARS-CoV-2 Nsp15 L163F (enzyme)
[11]
  Hex/Mono Ratio: 0.23

## SARS-CoV-2 Nsp15 P206S (enzyme)
[12]
  Hex/Mono Ratio: 2.49

## SARS-CoV-2 Nsp15 R207S (enzyme)
[13]
  Hex/Mono Ratio: 0.14

## SARS-CoV-2 Nsp15 T34I (enzyme)
[14]
  Hex/Mono Ratio: 1.01

## SARS-CoV-2 Nsp15 T115A (enzyme)
[15]
  Hex/Mono Ratio: 0.55

## SARS-CoV-2 Nsp15 V128F (enzyme)
[16]
  Hex/Mono Ratio: 0.5

## SARS-CoV-2 Nsp15 W333C (enzyme)
[17]
  Hex/Mono Ratio: 0.77
